According to patent US5708158, “Nuclear factors and binding assays” (Tularik Inc., dated 1998):

Molecular target: T1, NFATc-589 (translated in vitro) (human)
T1 chain: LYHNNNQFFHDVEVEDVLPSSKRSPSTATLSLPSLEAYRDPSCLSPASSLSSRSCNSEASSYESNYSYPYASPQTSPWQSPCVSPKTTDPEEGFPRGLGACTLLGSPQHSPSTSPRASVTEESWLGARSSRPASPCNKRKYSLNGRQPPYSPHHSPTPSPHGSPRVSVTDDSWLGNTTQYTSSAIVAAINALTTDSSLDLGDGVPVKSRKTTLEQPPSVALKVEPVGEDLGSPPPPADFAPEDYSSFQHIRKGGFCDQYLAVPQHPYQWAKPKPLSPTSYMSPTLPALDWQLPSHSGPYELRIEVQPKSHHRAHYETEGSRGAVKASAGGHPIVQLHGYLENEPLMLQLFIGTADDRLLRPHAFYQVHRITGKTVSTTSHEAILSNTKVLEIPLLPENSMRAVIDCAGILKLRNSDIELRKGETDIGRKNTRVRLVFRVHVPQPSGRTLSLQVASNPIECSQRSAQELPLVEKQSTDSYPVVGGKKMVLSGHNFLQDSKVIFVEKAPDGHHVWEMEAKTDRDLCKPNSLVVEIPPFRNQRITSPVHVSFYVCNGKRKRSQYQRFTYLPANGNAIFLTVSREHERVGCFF
Assay: gel mobility shift assay with two co-translated NFATc versions of different size; test for dimers on DNA
Description: After determining that NFAT rel domains were monomers in solution, we then considered the possibility that NFAT proteins might form dimers when bound to DNA. To address this question we carried out gel mobility shift assays with two different sized versions of NFATc translated in vitro (Hope and Struhl 1987). The shorter version contains the rel similarity region and a small amount of flanking residues and is referred to as NFATc-309. This construct is equivalent to the one that was expressed in *E. coli*. The larger version, NFATc-589, contains additional N-terminal sequences. When expressed individually in a rabbit reticulocyte lysate both versions of NFATc were active and produced protein-DNA complexes with different mobilities. When the two different NFATc proteins were mixed by co-translation the same protein-DNA complexes were apparent and no intermediate species was detectable, as would be expected if the proteins were forming dimers on the DNA.
Electrophoretic mobility shift assays were performed with the indicated amounts of proteins in 50 mM KCl, 25 mM HEPES, 0.05 mM EDTA, 5% glycerol, 1 mM DTT with […] of poly(dI-dC) and 100 ng of BSA. The binding reactions and electrophoresis were carried out at room temperature. The samples were run on a 5% polyacrylamide, 0.5× TBE gel at 200 V.

binding result: no binding
B1: NFATc-309 (translated in vitro) (other)
chain: MSPTLPALDWQLPSHSGPYELRIEVQPKSHHRAHYETEGSRGAVKASAGGHPIVQLHGYLENEPLMLQLFIGTADDRLLRPHAFYQVHRITGKTVSTTSHEAILSNTKVLEIPLLPENSMRAVIDCAGILKLRNSDIELRKGETDIGRKNTRVRLVFRVHVPQPSGRTLSLQVASNPIECSQRSAQELPLVEKQSTDSYPVVGGKKMVLSGHNFLQDSKVIFVEKAPDGHHVWEMEAKTDRDLCKPNSLVVEIPPFRNQRITSPVHVSFYVCNGKRKRSQYQRFTYLPANGNAIFLTVSREHERVGCFF
